Results: patent publication US20170319690A1 (AGENCY FOR SCIENCE TECHNOLOGY AND RESEARCH, published 2017)

Assays:
[1] = biological target: biotinylated murine PD-L1 (murine) (UniProt Q9EP73); assay: blocking ELISA; murine PD-L1 binding to murine PD-1 (the blocked partner) in the presence of the IgG
[2] = biological target: T1, biotinylated human PD-L1 (human, UniProt Q9NZQ7 19-239, limits assumed, biotinylated); assay: avidity ELISA; biotinylated human PD-L1 (0.2 ug/mL) captured on a neutravidin plate, IgG titrated, anti-human Fc-HRP/TMB
T1 construct: construct not described
Experimental: Neutravidin was coated onto maxisorp plates at 2 μg/mL in coating buffer and incubated overnight at 4° C. The next day, plates were washed with wash buffer (PBS+0.05% Tween-20), and blocker with casein for 1 hour, at room temperature. Plates were then washed again using wash buffer. […] Plates were then washed again using wash buffer. The different antibodies were then added at various concentrations, and incubated for 1 hour at room temperature. Plates were then washed again using wash buffer. Anti-human Fc-HRP was then added and incubated for 1 hour at room temperature. Plates were then washed again using wash buffer. Finally, TMB was added to develop the ELISA; TMB conversion by HRP was stopped using 1M H—Cl.

[3] = biological target: T1, biotinylated human PD-L1; assay: ELISA; antibody coated on the plate at 2 ug/mL, biotinylated human PD-L1 titrated (x axis: Human PD-L1, nM), streptavidin-HRP/TMB
Experimental: Binding was measured by ELISA. Antibodies were coated onto maxisorp plates at 2 μg/mL in coating buffer and incubated overnight at 4° C. The next day, plates were washed with wash buffer (PBS+0.05% Tween-20), and blocker with casein for 1 hour, at room temperature. Plates were then washed again using wash buffer. […] Plates were then washed again using wash buffer. […] Plates were then washed again using wash buffer. Finally, TMB was added to develop the ELISA; TMB conversion by HRP was stopped using 1M H—Cl.

[4] = biological target: T2, human PD-L1 expressed on cells (human, UniProt Q9NZQ7 19-290); assay: flow cytometry blocking assay; antibody mixed with human PD-1-PE (the blocked partner) and added to HEK293 cells transfected with human PD-L1
T2 construct: whole, on cells; also called PD-L1 transfected HEK 293 cells; HEK293-6E cells transfected with human PD-L1
Text: Cells were washed 3 times with PBS and all data were collected on a BD FACSCanto II (BD Bioscience) and analysed on BD FACSDiva software (BD Bioscience).

[5] = biological target: T1, biotinylated human PD-L1; assay: blocking ELISA; biotinylated human PD-L1 pre-incubated with the Fab, then added to plate-coated human PD-1-Fc (the blocked partner); streptavidin-HRP/TMB

T1 sequence (Q9NZQ7 19-239 limits assumed): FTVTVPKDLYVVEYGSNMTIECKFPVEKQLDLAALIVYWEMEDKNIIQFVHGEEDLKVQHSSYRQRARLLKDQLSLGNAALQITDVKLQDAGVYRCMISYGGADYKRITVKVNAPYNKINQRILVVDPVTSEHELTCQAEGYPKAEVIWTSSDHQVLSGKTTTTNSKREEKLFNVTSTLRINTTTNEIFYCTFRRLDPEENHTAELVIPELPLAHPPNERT
T2 sequence (Q9NZQ7 19-290): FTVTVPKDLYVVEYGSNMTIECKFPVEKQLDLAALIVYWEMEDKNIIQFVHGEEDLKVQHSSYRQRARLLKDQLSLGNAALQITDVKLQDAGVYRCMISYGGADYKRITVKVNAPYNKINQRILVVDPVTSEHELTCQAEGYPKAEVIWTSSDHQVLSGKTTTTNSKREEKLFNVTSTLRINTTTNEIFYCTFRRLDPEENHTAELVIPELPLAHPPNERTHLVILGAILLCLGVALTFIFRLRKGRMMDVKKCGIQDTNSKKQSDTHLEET
Sequence of biotinylated murine PD-L1 (murine) (Q9EP73 19-238 limits assumed): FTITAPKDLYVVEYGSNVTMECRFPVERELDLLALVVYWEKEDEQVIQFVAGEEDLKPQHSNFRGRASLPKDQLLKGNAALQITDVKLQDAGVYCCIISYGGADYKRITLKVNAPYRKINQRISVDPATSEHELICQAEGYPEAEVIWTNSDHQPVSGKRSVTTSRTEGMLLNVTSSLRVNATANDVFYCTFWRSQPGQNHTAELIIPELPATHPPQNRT

commercially available anti-murine PD-L1 IgG antibody 10F.9G2 (BioLegend)
IC50 (read off the curve) [1]: 10 nM

B1: anti-PD-L1 antibody C4 (format not stated in the example) (antibody, V domains shown)
VH: QVQLQQSGAEVKKPGSSVKVSCKASGGTFSSYAISWVRQAPGQGLEWMGRIIPILGIANYAQKFQGRVTITADKSTSTAYMELSSLRSEDTAVYYCARGGYGGNSLYAFDIWGQGTMVTVSS
VL: QSVVTQPPSVSAAPGQKVTISCSGSSSNIGNNYVSWYQQLPGTAPKLLIYDNNERLSGIPDRFSGSKSGTSATLGISGLQTGDEADYYCGTWDSSLSVVVFGGGTKLTVL
notes: detected with anti-human Fc-HRP in the avidity ELISA, so it carried an Fc there
EC50 (read off the curve) [2]: ~0.9 nM | EC50 (read off the curve) [3]: ~0.9 nM

B2: anti-PD-L1 antibody H12, IgG1 format (antibody, V domains shown)
VH: EVQLVQSGAEVKKPGASVKVSCKASGGTFSSYAISWVRQAPGQGLEWMGRIIPILGIANYAQKFQGRVTITADKSTSTAYMELSSLRSEDTAVYYCARSGHGYSYGAFDYWGQGTL
VL: QSVLTQPPSVSGAPGQRVTISCTGSSSNIGAGYDVHWYQQLPGTAPKLLIYGNSNRPSGVPDRFSGSKSGTSASLAITGLQAEDEADYYCQSYDSSLSGSYVVFGGGTKLTVL
notes: IgG1
IC50 (read off the curve) [4]: ~9 nM

B3: anti-PD-L1 antibody H12, IgG4 format (antibody, V domains shown)
VH: EVQLVQSGAEVKKPGASVKVSCKASGGTFSSYAISWVRQAPGQGLEWMGRIIPILGIANYAQKFQGRVTITADKSTSTAYMELSSLRSEDTAVYYCARSGHGYSYGAFDYWGQGTL
VL: QSVLTQPPSVSGAPGQRVTISCTGSSSNIGAGYDVHWYQQLPGTAPKLLIYGNSNRPSGVPDRFSGSKSGTSASLAITGLQAEDEADYYCQSYDSSLSGSYVVFGGGTKLTVL
notes: IgG4
IC50 (read off the curve) [4]: ~9 nM

B4: anti-PD-L1 antibody clone A1, Fab format (Fab, V domains shown)
VH: QVQLQQSGAEVKKPGSSVKVSCKASGGTFSSYAISWVRQAPGQGLEWMGRIIPILGIANYAQKFQGRVTITADKSTSTAYMELSSLRSEDTAVYYCARGGSYGSLYAFDIWGQGTMVTVSS
VL: QSVLTQPPSVSAAPGQRVSISCSGRSSNIASHDVFWYQQLPGTAPKIVMYETNKRPWGIPDRFSGSKSGTSATLDIAGLQTGDEADYYCGAWDSGLTGMLFGGGTKVTVL
notes: Human Fab from a phage display library
IC50 (read off the curve) [5]: ~50 nM

B5: anti-PD-L1 antibody H12_GL, IgG1 format (antibody, V domains shown)
VH: QVQLVQSGAEVKKPGSSVKVSCKASGGTFSSYAISWVRQAPGQGLEWMGRIIPILGIANYAQKFQGRVTITADKSTSTAYMELSSLRSEDTAVYYCARSGHGYSYGAFDYWGQGTLVTVSS
VL: QSVLTQPPSVSGAPGQRVTISCTGSSSNIGAGYDVHWYQQLPGTAPKLLIYGNSNRPSGVPDRFSGSKSGTSASLAITGLQAEDEADYYCQSYDSSLSGSYVVFGGGTKLTVL
notes: IgG1
IC50 (read off the curve) [4]: ~7 nM

B6: anti-PD-L1 antibody H12_GL, IgG4 format (antibody, V domains shown)
VH: QVQLVQSGAEVKKPGSSVKVSCKASGGTFSSYAISWVRQAPGQGLEWMGRIIPILGIANYAQKFQGRVTITADKSTSTAYMELSSLRSEDTAVYYCARSGHGYSYGAFDYWGQGTLVTVSS
VL: QSVLTQPPSVSGAPGQRVTISCTGSSSNIGAGYDVHWYQQLPGTAPKLLIYGNSNRPSGVPDRFSGSKSGTSASLAITGLQAEDEADYYCQSYDSSLSGSYVVFGGGTKLTVL
notes: IgG4
IC50 (read off the curve) [4]: ~7 nM

B7: anti-PD-L1 antibody clone C2, Fab format (Fab, V domains shown)
VH: QVQLQQSGAEVKKPGSSVKVSCKASGGTFSSYAISWVRQAPGQGLEWMGRIIPILGIANYAQKFQGRVTITADKSTSTAYMELSSLRSEDTAVYYCARGGSYGSLYAFDIWGQGTTVTVSS
VL: SYELTQPPSVSVAPGKTTRITCGGDNIGRKSVHWYQQRPGQAPLLLVYDDGDRPSGIPDRFSGSNSGNTATLTISGTQAMDEADYYCQAWDSTVVFGGGTRLTVL
notes: as for B4
IC50 (read off the curve) [5]: ~40 nM
